# B1: SspiSSy: santalene synthase from Santalum spicatum, gene SEQ ID NO:5, protein SEQ ID NO:6 (protein, listed as Santalum spicatum)
# chain: MDSSTATATTAPFIDHTDHVNLKIDNDSSESRRMGNYKPSIWNYDFLQSLAIHHNIVEEKHLKLAEKLKGQVMSMFGAPMEPLAKLELVDVVQRLGLNHQFETEIKEALFSVYKDGSNGWWFGHLHATSLRFRLLRQCGLFIPQDVFKTFQSKTDEFDMKLCDNIKGLLSLYEASFLGWKGENILDEAKAFATKYLKNAWENISQKWLAKRVKHALALPLHWRVPRIEARWFIEAYEQEENMNPTLLKLAKLDFNMVQSIHQKEIGELARWWVTTGLDKLAFARNNLLQSYMWSCAIASDPKFKLARETIVEIGSVLTVVDDAYDVYGSMDELDHYTYSVERWSCVEIDKLPNTLKLIFMSMFNKTNEVGLRVQHERGYNGIPTFIKAWVEQCKAYQKEARWYHGGHTPPLEEYSLNGLVSIGFPLLLITGYIAIAENEAALDKVHPLPDLLHYSSLLSRLINDMGTSPDEMARGDNLKSIHCYMNETGASEEVAREHIKGIIEENWKILNQCCFDQSQFQEPFITFNLNSVRGSHFFYEFGDGFGVTDSWTKVDMKSVLIDPIPLGEE
# modifications: SspiSSy Protein
# Legend:
# [1] = GC-FID determination of reaction products of terpene synthases from FPP with magnesium or manganese; assay type: biochemical
# Procedure: Enzyme assays for all recombinant proteins were done in triplicate using the GC vial method described by O'Maille et al. (Anal. Biochem. 335:[…] (2004). For enzyme assays where only product identification was needed, 10 μg of protein was used in a final volume of 500 μL of reaction buffer (25 mM HEPES, 10% glycerol, 5 mM DTT and 10 mM of either Mg^2+ or Mn^2+. Substrates (FPP and GPP) were added to a final reaction concentration of 100 μM. Vials were overlaid with 500 μL of hexane to trap volatile products and incubated at 30° C. for 2 h. Mixtures were vortexed for 1 min to extract all volatiles and the vials were centrifuged to separate the organic layer.
# Product mixtures were analysed by GC-MS in scan mode for product identification. A standard containing the three santalenes and α-trans-bergamotene was prepared by flash chromatography of 2 mL of neat S. album oil over silica and eluted in hexane. A final yield of 25 mg was resuspended in EtOAc and purity was confirmed by GC-FID with conditions described below. All mass spectra were compared to the NIST 2005 library and the literature. Retention indices were determined for all compounds using an n-alkane standard and compared to the literature (R. P. Adams, “Identification of essential oil components by gas chromatography/mass spectrometry,” Allured Publishing Corporation, Carol Stream, Ill. (1995)).
# GC-FID was performed on a Shimadzu GC2010 with a 30 m 0.25 mm ID, 0.25 μm film DB-WAX column with He as the carrier gas. Splitless injection (2 μL) was used for all analyses. Conditions were as follows: injector 200° C., detector 250° C., column flow rate 1 mL/min. Oven program: 40° C. for 3 min, then 8° C./min to 180° C., held 5 min, then 10° C./min to 220° C., held 10 min. Needle height was adjusted to only draw from the upper organic layer of all sample vials. GC-MS was performed on a Shimadzu GC2010 with the same DB-WAX column and using He as the carrier gas. Conditions were as follows: injector 200° C., MS interface 240° C., ion source 200° C. Oven program: 40° C. for 3 min, then 8° C./min to 180° C., held 5 min, then 10° C./min to 220° C., held 10 min. Solvent cut time was set to 5 min. For product identification, total ion monitoring was used, scanning from m/z 45 to m/z 300. For kinetic assays, single ion monitoring of the sesquiterpene base ions m/z 91, 93 and 94 were used. Likewise monoterpene base ions (m/z 69, 71 and 93) were monitored. An internal standard (isobutyl benzene, 30 μM) was added to the hexane used to overlay each reaction. Detector response factors were calculated based on the santalene standard prepared earlier and used to determine the product concentrations for kinetic analysis.
# [2] = as above; assay type: biochemical; remark: listed apart in the source
molecule,measurement,setting,value
B1,E-β-farnesene among reaction products (GC-FID),"[1]; FPP Mg, mean",2.2
same,Z-β-farnesene among reaction products (GC-FID),"[1]; FPP Mg, mean",0.7
same,epi-β-santalene among reaction products (GC-FID),"[1]; FPP Mg, mean",4.2
same,α-E-bergamotene among reaction products (GC-FID),"[1]; FPP Mg, mean",19.2
same,α-santalene among reaction products (GC-FID),"[1]; FPP Mg, mean",47.3
same,β-santalene among reaction products (GC-FID),"[1]; FPP Mg, mean",26.3
same,E-β-farnesene among reaction products (GC-FID),"[1]; FPP Mg, replicate 1",2.5
same,Z-β-farnesene among reaction products (GC-FID),"[1]; FPP Mg, replicate 1",0.7
same,epi-β-santalene among reaction products (GC-FID),"[1]; FPP Mg, replicate 1",4.6
same,α-E-bergamotene among reaction products (GC-FID),"[1]; FPP Mg, replicate 1",19.6
same,α-santalene among reaction products (GC-FID),"[1]; FPP Mg, replicate 1",46.3
same,β-santalene among reaction products (GC-FID),"[1]; FPP Mg, replicate 1",26.4
same,E-β-farnesene among reaction products (GC-FID),"[1]; FPP Mg, replicate 2",2.2
same,Z-β-farnesene among reaction products (GC-FID),"[1]; FPP Mg, replicate 2",0.6
same,epi-β-santalene among reaction products (GC-FID),"[1]; FPP Mg, replicate 2",4.2
same,α-E-bergamotene among reaction products (GC-FID),"[1]; FPP Mg, replicate 2",19.2
same,α-santalene among reaction products (GC-FID),"[1]; FPP Mg, replicate 2",47.4
same,β-santalene among reaction products (GC-FID),"[1]; FPP Mg, replicate 2",26.4
same,E-β-farnesene among reaction products (GC-FID),"[1]; FPP Mg, replicate 3",2.0
same,Z-β-farnesene among reaction products (GC-FID),"[1]; FPP Mg, replicate 3",0.8
same,epi-β-santalene among reaction products (GC-FID),"[1]; FPP Mg, replicate 3",4.0
same,α-E-bergamotene among reaction products (GC-FID),"[1]; FPP Mg, replicate 3",18.9
same,α-santalene among reaction products (GC-FID),"[1]; FPP Mg, replicate 3",48.1
same,β-santalene among reaction products (GC-FID),"[1]; FPP Mg, replicate 3",26.3
same,E-β-farnesene among reaction products (GC-FID),"[1]; FPP Mn, mean",8.2
same,Z-β-farnesene among reaction products (GC-FID),"[1]; FPP Mn, mean",1.0
same,epi-β-santalene among reaction products (GC-FID),"[1]; FPP Mn, mean",1.3
same,α-E-bergamotene among reaction products (GC-FID),"[1]; FPP Mn, mean",78.9
same,α-santalene among reaction products (GC-FID),"[1]; FPP Mn, mean",7.3
same,β-santalene among reaction products (GC-FID),"[1]; FPP Mn, mean",3.4
same,E-β-farnesene among reaction products (GC-FID),"[1]; FPP Mn, replicate 1",8.1
same,Z-β-farnesene among reaction products (GC-FID),"[1]; FPP Mn, replicate 1",1.0
same,epi-β-santalene among reaction products (GC-FID),"[1]; FPP Mn, replicate 1",1.4
same,α-E-bergamotene among reaction products (GC-FID),"[1]; FPP Mn, replicate 1",79.0
same,α-santalene among reaction products (GC-FID),"[1]; FPP Mn, replicate 1",7.2
same,β-santalene among reaction products (GC-FID),"[1]; FPP Mn, replicate 1",3.3
same,E-β-farnesene among reaction products (GC-FID),"[1]; FPP Mn, replicate 2",8.0
same,Z-β-farnesene among reaction products (GC-FID),"[1]; FPP Mn, replicate 2",1.0
same,epi-β-santalene among reaction products (GC-FID),"[1]; FPP Mn, replicate 2",1.7
same,α-E-bergamotene among reaction products (GC-FID),"[1]; FPP Mn, replicate 2",78.6
same,α-santalene among reaction products (GC-FID),"[1]; FPP Mn, replicate 2",7.4
same,β-santalene among reaction products (GC-FID),"[1]; FPP Mn, replicate 2",3.4
same,E-β-farnesene among reaction products (GC-FID),"[1]; FPP Mn, replicate 3",8.4
same,Z-β-farnesene among reaction products (GC-FID),"[1]; FPP Mn, replicate 3",1.0
same,epi-β-santalene among reaction products (GC-FID),"[1]; FPP Mn, replicate 3",0.7
same,α-E-bergamotene among reaction products (GC-FID),"[1]; FPP Mn, replicate 3",79.1
same,α-santalene among reaction products (GC-FID),"[1]; FPP Mn, replicate 3",7.3
same,β-santalene among reaction products (GC-FID),"[1]; FPP Mn, replicate 3",3.5
same,Relative % composition in oil produced by enzyme: E-α-bergamotol,[1]; GC-FID,19.2%
same,Relative % composition in oil produced by enzyme: β-santalol,[1]; GC-FID,26.3%
same,Relative % composition in oil produced by enzyme: epi-β-santalol,[2],4.2%
same,Relative % composition in oil produced by enzyme: α-santalol,[2],47.3%

# Reference: patent publication US9260728B2, “Terpene synthases from Santalum” (UNIVERSITY OF BRITISH COLUMBIA, priority 2009, dated 2016)
